Laboratory results from PMC11379722.
pEC50: −log10 of the molar value.

Columns and labels:
[1] = molecular target: S protein of the SARS-CoV-2 Omicron (B.1.1.529) strain, his-tagged (SARS-CoV-2, Omicron (B.1.1.529) strain) (UniProt P0DTC2); test: BLI
[2] = molecular target: RBD of the SARS-CoV-2 Delta (B.1.617.2) strain (SARS-CoV-2, Delta (B.1.617.2) strain) (UniProt P0DTC2); test: ELISA

Substance: CR3022 SH100D+SH103Y+IL34W triple mutant (IgG1 format) (antibody)
- fold increase in binding affinity (BLI) against wild-type CR3022 [1]: 6.1 fold

Substance: CR3022 SH100D+SH103Y+SL33R triple mutant (IgG1 format) (antibody)
- fold increase in binding affinity (BLI) against wild-type CR3022 [1]: 4.1 fold
- pEC50 [2]: 10.22
- fold lower ELISA EC50 than wild-type CR3022 [2]: 3.4 fold
